According to patent publication US20240417477A1 (B G NEGEV TECHNOLOGIES AND APPLICATIONS LTD AT BEN GURION …, published 2024):
Values belong to the binder of their own block, whether it stands above or below them.

What was measured:
[1] = target: T1, human Axl recombinant protein (ACROBiosystems) (human, UniProt P30530 26-449, limits assumed); assay: ELISA: recombinant human AXL on the plate, purified antibody 0 to 50 nM, anti-human-Fc-HRP
T1 construct: Coated on ELISA plates; analyte in SPR; also called recombinant AXL; human AXL protein
Protocol: (§1) The plates were then blocked, and incubated with serial dilutions of the antibodies. Next, anti-human-FC-HRP (Jackson laboratories) was added to the plates and a reaction was developed with TMB substrates. Once color developed H2SO4 was used to end the reaction. Plates were washed with PBST (PBS containing 0.05% Tween-20) between the steps. Each of the mentioned steps was carried out for 1 hour at room temperature. The plates were then read on a spectrophotometer at 450 nm.
(§2) All four constructs were purified using Ni-NTA resins and diluted to different concentrations prior to ELISA binding analysis. […] To further determine the dissociation constant (KD value) of the mono specific and bi-specific antibodies to their respective targets, the surface plasmon resonance (SPR) method was utilized (using Biorad ProteOn XPR36). The different antibodies were immobilized in independent channels on a SPR sensor prism (ProteOn XPR36 compatible chip), as ligands. […] Based on the association and dissociation interaction between each of the recombinant proteins and the respective antibodies, respective KD values were calculated.

[2] = target: T2, human PD-1 recombinant protein (ACROBiosystems) (human, UniProt Q15116 25-167, biotinylated (in the ELISA, captured on streptavidin)); assay: ELISA: biotinylated human PD-1 on streptavidin plate, dilutions of secreted construct, anti-human-Fc-HRP
T2 construct: Analyte in SPR; also called recombinant PD-1; human PD-1 protein
T2 sequence (Q15116 25-167 limits assumed): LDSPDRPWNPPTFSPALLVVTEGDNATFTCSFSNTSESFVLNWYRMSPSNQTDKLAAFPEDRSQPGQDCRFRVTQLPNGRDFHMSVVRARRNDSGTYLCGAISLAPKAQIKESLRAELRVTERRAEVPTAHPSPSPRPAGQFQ
Protocol: as §1

[3] = target: T1, human Axl recombinant protein …; assay: ELISA: human AXL recombinant protein on the plate, dilutions of secreted construct, anti-human-Fc-HRP
Protocol: as §1

[4] = target: T1, human Axl recombinant protein …; assay: SPR (Biorad ProteOn XPR36), antibody immobilised, recombinant AXL as analyte 3.125-50 nM
Description: as §2

[5] = target: T2, human PD-1 recombinant protein …; assay: ELISA: biotinylated recombinant human PD-1 on streptavidin plate, purified antibody 0 to 10 nM, anti-human-Fc-HRP
Protocol: as §1, §2

[6] = target: T3, human PD-1 receptor overexpressed on Bw-PD-1 reporter cells (fusion of PD-1 with a zeta chain) (human, UniProt Q15116 25-288); assay: cell-based or functional assay
T3 sequence (Q15116 25-288): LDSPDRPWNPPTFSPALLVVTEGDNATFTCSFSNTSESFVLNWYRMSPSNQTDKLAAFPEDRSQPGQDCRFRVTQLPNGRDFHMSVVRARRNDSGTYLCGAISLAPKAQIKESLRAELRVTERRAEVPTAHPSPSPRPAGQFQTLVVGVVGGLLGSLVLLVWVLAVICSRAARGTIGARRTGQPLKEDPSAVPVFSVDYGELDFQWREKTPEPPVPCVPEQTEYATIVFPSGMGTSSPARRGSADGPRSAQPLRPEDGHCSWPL

[7] = target: T4, AXL expressed on HNSCC tumor cells (SCC47, SNU1076, FaDu) (human, UniProt P30530 26-894); assay: cell-based or functional assay
[8] = target: T3, human PD-1 receptor overexpressed on …; assay: cell-based or functional assay; remark: listed apart in the source
[9] = target: T4, AXL expressed on HNSCC tumor cells …; assay: cell-based or functional assay; remark: listed apart in the source
[10] = target: T2, human PD-1 recombinant protein …; assay: SPR (Biorad ProteOn XPR36), antibody immobilised, recombinant PD-1 as analyte 3.125-50 nM
Description: as §2

binding result [1]: no binding (tested: 50 nM)
B1: mono-specific anti-PD-1 scFv-Fc PD-1-2 (from Nivolumab) (Fc fusion)
chain: EIVLTQSPATLSLSPGERATLSCRASQSVSSYLAWYQQKPGQAPRLLIYDASNRATGIPARFSGSGSGTDFTLTISSLEPEDFAVYYCQQSSNWPRTFGQGTKVEIKGGGGSGGGGSGGGGSGGGGSQVQLVESGGGVVQPGRSLRLDCKASGITFSNSGMHWVRQAPGKGLEWVAVIWYDGSKRYYADSVKGRFTISRDNSKNTLFLQMNSLRAEDTAVYYCATNDDYWGQGTLVTVSSGGGGSGGGGSGGGGSGGGGS
notes: the tie is by this chain of statements; also called mono-PD-1; mono PD-1; not shown: engineered human IgG1 Fc (hinge, CH2, CH3) of plasmid pFUSE-hIgG1e3-Fc2; C-terminal His tag

binding result [3]: binds | binding result [2]: binds
B3: Bi-2 bi-specific construct AXL-PD1-Fc (anti-AXL scFv-anti PD1 scFv-Fc) (bispecific antibody)
chain: DIQMTQSPSSLSASVGDRVTITCRASQDVSTAVAWYQQKPGKAPKLLIYSASFLYSGVPSRFSGSGSGTDFTLTISSLQPEDFATYYCQQSYTTPPTFGQGTKVEIKGGGGSGGGGSGGGGSGGGGSEVQLVESGGGLVQPGGSLRLSCAASGFSLSGSWIHWVRQAPGKGLEWVGWINPYRGYAYYADSVKGRFTISADTSKNTAYLQMNSLRAEDTAVYYCAREYSGWGGSSVGYAMDYWGQGTLVGGGGSGGGGSGGGGSGGGGSEIVLTQSPATLSLSPGERATLSCRASQSVSSYLAWYQQKPGQAPRLLIYDASNRATGIPARFSGSGSGTDFTLTISSLEPEDFAVYYCQQSSNWPRTFGQGTKVEIKGGGGSGGGGSGGGGSGGGGSQVQLVESGGGVVQPGRSLRLDCKASGITFSNSGMHWVRQAPGKGLEWVAVIWYDGSKRYYADSVKGRFTISRDNSKNTLFLQMNSLRAEDTAVYYCATNDDYWGQGTLVTVSSGGGGSGGGGSGGGGSGGGGSRSVECPPCPAPPVAGPSVFLFPPKPKDTLMISRTPEVTCVVVDVSHEDPEVKFNWYVDGVEVHNAKTKPREEQYNSTYRVVSVLTVLHQDWLNGKEYKCKVSNKGLPSSIEKTISKAKGQPREPQVYTLPPSREEMTKNQVSLTCLVKGFYPSDIAVEWESNGQPENNYKTTPPVLDSDGSFFLYSKLTVDKSRWQQGNVFSCSVMHEGLHNHYTQKSLSLSPGKHHHHHH
notes: Tandem anti-AXL scFv and anti-PD-1 scFv, engineered human IgG1 Fc, C-terminal His tag; also called BsAbI-AXL/PD-1

Kd [4]: 20.9 nM | koff [4]: 0.00102 s⁻¹ | kon [4]: 49000 M⁻¹ s⁻¹ | binding result [5]: no binding (tested: 10 nM)
B4: mono-specific anti-AXL scFv-Fc AXL2 (from YW327.6S2) (Fc fusion)
chain: DIQMTQSPSSLSASVGDRVTITCRASQDVSTAVAWYQQKPGKAPKLLIYSASFLYSGVPSRFSGSGSGTDFTLTISSLQPEDFATYYCQQSYTTPPTFGQGTKVEIKGGGGSGGGGSGGGGSGGGGSEVQLVESGGGLVQPGGSLRLSCAASGFSLSGSWIHWVRQAPGKGLEWVGWINPYRGYAYYADSVKGRFTISADTSKNTAYLQMNSLRAEDTAVYYCAREYSGWGGSSVGYAMDYWGQGTLVGGGGSGGGGSGGGGSGGGGS
notes: also called mono-AXL; AXL2 scFv-Fc; not shown: engineered human IgG1 Fc (hinge, CH2, CH3) of plasmid pFUSE-hIgG1e3-Fc2; C-terminal His tag

Second part, the binder before the results:

B2: Bi-1 bi-specific construct PD1-AXL-Fc (anti PD1 scFv-anti AXL scFv-Fc) (bispecific antibody)
chain: EIVLTQSPATLSLSPGERATLSCRASQSVSSYLAWYQQKPGQAPRLLIYDASNRATGIPARFSGSGSGTDFTLTISSLEPEDFAVYYCQQSSNWPRTFGQGTKVEIKGGGGSGGGGSGGGGSGGGGSQVQLVESGGGVVQPGRSLRLDCKASGITFSNSGMHWVRQAPGKGLEWVAVIWYDGSKRYYADSVKGRFTISRDNSKNTLFLQMNSLRAEDTAVYYCATNDDYWGQGTLVTVSSGGGGSGGGGSGGGGSGGGGSDIQMTQSPSSLSASVGDRVTITCRASQDVSTAVAWYQQKPGKAPKLLIYSASFLYSGVPSRFSGSGSGTDFTLTISSLQPEDFATYYCQQSYTTPPTFGQGTKVEIKGGGGSGGGGSGGGGSGGGGSEVQLVESGGGLVQPGGSLRLSCAASGFSLSGSWIHWVRQAPGKGLEWVGWINPYRGYAYYADSVKGRFTISADTSKNTAYLQMNSLRAEDTAVYYCAREYSGWGGSSVGYAMDYWGQGTLVGGGGSGGGGSGGGGSGGGGSRSVECPPCPAPPVAGPSVFLFPPKPKDTLMISRTPEVTCVVVDVSHEDPEVKFNWYVDGVEVHNAKTKPREEQYNSTYRVVSVLTVLHQDWLNGKEYKCKVSNKGLPSSIEKTISKAKGQPREPQVYTLPPSREEMTKNQVSLTCLVKGFYPSDIAVEWESNGQPENNYKTTPPVLDSDGSFFLYSKLTVDKSRWQQGNVFSCSVMHEGLHNHYTQKSLSLSPGKHHHHHH
notes: Tandem anti-PD-1 scFv (Nivolumab-derived) and anti-AXL scFv (YW327.6S2-derived), engineered human IgG1 Fc (pFUSE-hIgG1e3-Fc2), C-terminal His tag; also called BsAbI-AXL/PD-1; BsAb-AXL/PD1
EC50 (read off the curve) [1]: ~5 nM | binding result [2]: binds

B5: Bi-3 bi-specific construct PD1-Fc-AXL (anti PD1 scFv-Fc-anti AXL scFv) (bispecific antibody)
chain: EIVLTQSPATLSLSPGERATLSCRASQSVSSYLAWYQQKPGQAPRLLIYDASNRATGIPARFSGSGSGTDFTLTISSLEPEDFAVYYCQQSSNWPRTFGQGTKVEIKGGGGSGGGGSGGGGSGGGGSQVQLVESGGGVVQPGRSLRLDCKASGITFSNSGMHWVRQAPGKGLEWVAVIWYDGSKRYYADSVKGRFTISRDNSKNTLFLQMNSLRAEDTAVYYCATNDDYWGQGTLVTVSSGGGGSGGGGSGGGGSGGGGSRSVECPPCPAPPVAGPSVFLFPPKPKDTLMISRTPEVTCVVVDVSHEDPEVKFNWYVDGVEVHNAKTKPREEQYNSTYRVVSVLTVLHQDWLNGKEYKCKVSNKGLPSSIEKTISKAKGQPREPQVYTLPPSREEMTKNQVSLTCLVKGFYPSDIAVEWESNGQPENNYKTTPPVLDSDGSFFLYSKLTVDKSRWQQGNVFSCSVMHEGLHNHYTQKSLSLSPGKGGGGSGGGGSGGGGSGGGGSDIQMTQSPSSLSASVGDRVTITCRASQDVSTAVAWYQQKPGKAPKLLIYSASFLYSGVPSRFSGSGSGTDFTLTISSLQPEDFATYYCQQSYTTPPTFGQGTKVEIKGGGGSGGGGSGGGGSGGGGSEVQLVESGGGLVQPGGSLRLSCAASGFSLSGSWIHWVRQAPGKGLEWVGWINPYRGYAYYADSVKGRFTISADTSKNTAYLQMNSLRAEDTAVYYCAREYSGWGGSSVGYAMDYWGQGTLVHHHHHH
notes: Anti-PD-1 scFv at the N-terminus and anti-AXL scFv at the C-terminus of an engineered human IgG1 Fc, C-terminal His tag; also called BsAbI-AXL/PD-1; BsAb-AXL/PD1 (Bi-3)
FaDu GFP / Bw-PD-1 mCherry cell doublets by flow cytometry, against the combination of mono Abs and no treatment [6]: 2.5 fold | FaDu GFP / Bw-PD-1 mCherry cell doublets by flow cytometry, against the combination of mono Abs and no treatment [7]: 2.5 fold | %Gated 'Doublets & Focused' (image stream, Area BF against Aspect Ratio BF), FaDu-plx GFP cells mixed with DiD-stained Bw-PD-1 cells; same figure: No treatment 690 / 7.6, Combo 442 / 4.9 [8]: 17.8 %Gated | %Gated 'Doublets & Focused' (image stream, Area BF against Aspect Ratio BF), FaDu-plx GFP cells mixed with DiD-stained Bw-PD-1 cells; same figure: No treatment 690 / 7.6, Combo 442 / 4.9 [9]: 17.8 %Gated | Kd [4]: 60 nM | koff [4]: 0.00247 s⁻¹ | kon [4]: 41100 M⁻¹ s⁻¹ | Kd [10]: 5.82 nM | koff [10]: 0.000743 s⁻¹ | kon [10]: 128000 M⁻¹ s⁻¹
